Assay results: patent US20110165078A1 (UNIVERSITY COURT OF THE UNIVERSITY OF ABERDEEN, published 2011)

How the values were obtained:
[1] = molecular target: T1, target peptide-BSA conjugate (…-BSA) (human; bovine, UniProt P02769 25-607, chemically conjugated to bovine serum albumin (BSA) using 3 maleimidoacetic acid N-hydroxysuccinimide (MBS)); assay: ELISA on coated peptide-BSA or BSA, detection with HRP anti-human Cκ
T1 construct: Typically on average ~4 peptide molecules per molecule of albumin; also called BSA-target peptide; BSA-peptide 2
T1 sequence (P02769 25-607 limits assumed): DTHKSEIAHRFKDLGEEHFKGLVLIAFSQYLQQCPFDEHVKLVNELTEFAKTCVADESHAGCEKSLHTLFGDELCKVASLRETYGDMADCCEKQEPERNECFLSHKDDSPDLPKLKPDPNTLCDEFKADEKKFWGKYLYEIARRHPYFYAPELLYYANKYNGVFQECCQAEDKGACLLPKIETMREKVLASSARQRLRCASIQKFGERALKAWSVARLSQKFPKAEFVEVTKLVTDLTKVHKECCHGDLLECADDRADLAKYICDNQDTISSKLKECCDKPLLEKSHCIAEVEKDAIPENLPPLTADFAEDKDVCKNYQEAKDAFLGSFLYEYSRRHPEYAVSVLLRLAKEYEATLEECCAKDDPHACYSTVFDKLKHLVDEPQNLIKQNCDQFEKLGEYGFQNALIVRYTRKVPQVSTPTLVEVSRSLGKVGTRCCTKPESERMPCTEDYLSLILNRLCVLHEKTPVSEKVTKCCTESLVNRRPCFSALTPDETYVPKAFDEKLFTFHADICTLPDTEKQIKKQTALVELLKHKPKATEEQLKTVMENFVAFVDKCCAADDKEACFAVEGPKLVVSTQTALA

[2] = molecular target: T2, rat synaptophysin (in rat hepatic stellate cells) (rat, UniProt P07825 1-307); assay: Western blot of cell extracts (5 µg/lane) probed with C1-3 scAb
T2 construct: In rat HSC extracts on a Western blot; also called synaptophysin in rat HSCs; rHSCs
T2 sequence (P07825 whole entry): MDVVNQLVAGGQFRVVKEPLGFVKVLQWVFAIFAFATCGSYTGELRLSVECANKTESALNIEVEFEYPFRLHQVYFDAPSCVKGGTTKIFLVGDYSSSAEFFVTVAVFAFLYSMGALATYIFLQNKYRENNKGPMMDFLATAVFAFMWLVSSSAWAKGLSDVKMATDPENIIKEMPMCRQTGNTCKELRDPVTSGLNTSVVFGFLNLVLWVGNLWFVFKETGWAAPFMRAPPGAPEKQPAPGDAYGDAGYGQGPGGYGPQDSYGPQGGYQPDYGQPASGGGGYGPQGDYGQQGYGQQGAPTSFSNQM

- fold more scAb bound to peptide-BSA than to BSA alone [1]: ~8 times
- binding result [2]: no binding
B1: C1-3 scAb (scFv)
scFv: MAEVQLLESGGGLVQPGGSLRLSCAASGFTFSSYAMSWVRQAPGKGLEWVSTIAASGPSTGYADSVKGRFTISRDNSKNTLYLQMNSLRAEDTAVYYCAKTTAKFDYWGQGTLVTVSSGGGGSGGGGSGGGGSTDIQMTQSPSSLSASVGDRVTITCRASQSISSYLNWYQQKPGKAPKLLIYSASRLQSGVPSRFNGSGSGTDFTLTISSLQPEDFATYYCQQLQRKPTTFGQGTKVEIKRGAAAPSVFIFPPSDEQLKSGTASVVCLLNNFYPREAKVQWKVDNALQSGNSQESVTEQDSKDSTYSLSSTLTLSKADYEKHKVYACEVTHQGLSSPVTKSFNRGESHHHHHH
notes: Single-chain antibody fragment: scFv fused to human C kappa and a hexa-histidine tag, expressed from pIMS147 in E. coli XL-1 blue; also called C1-3 scFv; clone pIMS147 C1-3
